We go through one molecule from publication PMC11697363 (Nature Communications, 2025).

In this assay the target is T1, GST-Pelota (Arabidopsis thaliana, UniProt Q9ZT87 1-378).
T1 sequence (looked up): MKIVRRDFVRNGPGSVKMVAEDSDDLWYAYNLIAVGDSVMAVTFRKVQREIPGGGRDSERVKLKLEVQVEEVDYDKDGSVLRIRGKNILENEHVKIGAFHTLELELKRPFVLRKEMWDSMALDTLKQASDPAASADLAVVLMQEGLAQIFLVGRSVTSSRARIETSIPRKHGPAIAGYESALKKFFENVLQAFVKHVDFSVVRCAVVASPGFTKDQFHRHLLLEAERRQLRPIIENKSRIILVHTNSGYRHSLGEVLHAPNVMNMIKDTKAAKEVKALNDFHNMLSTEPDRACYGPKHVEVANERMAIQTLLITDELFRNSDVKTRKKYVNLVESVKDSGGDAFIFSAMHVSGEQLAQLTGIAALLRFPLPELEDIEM
The assay can be described thus: pull-down.

B1: MBP-SCE1 (enzyme, Arabidopsis thaliana, UniProt Q42551 1-160, looked up)
chain: MASGIARGRLAEERKSWRKNHPHGFVAKPETGQDGTVNLMVWHCTIPGKAGTDWEGGFFPLTMHFSEDYPSKPPKCKFPQGFFHPNVYPSGTVCLSILNEDYGWRPAITVKQILVGIQDLLDTPNPADPAQTDGYHLFCQDPVEYKKRVKLQSKQYPALV
As to B1, the binding result is recorded as “binds”.
